Laboratory results as given in patent US20180282719A1 (published 2018).
Numbering of substitutions follows the chain as printed. Each block holds one binder with its values, some of them ahead of it.

Legend:
[1] = molecular target: T1, recombinant soluble human IL-6 receptor (SR344) (human, UniProt P08887 20-344, biotinylated (sites not given) where immobilized via streptavidin or used in phage ELISA); assay: SPR Biacore T100, antibody on protein A/G chip, SR344 analyte, pH 7.4, 37 C
T1 construct: also called soluble IL-6 receptor; membrane-type IL-6 receptor (when biotinylated and immobilized on the chip)
T1 sequence (looked up): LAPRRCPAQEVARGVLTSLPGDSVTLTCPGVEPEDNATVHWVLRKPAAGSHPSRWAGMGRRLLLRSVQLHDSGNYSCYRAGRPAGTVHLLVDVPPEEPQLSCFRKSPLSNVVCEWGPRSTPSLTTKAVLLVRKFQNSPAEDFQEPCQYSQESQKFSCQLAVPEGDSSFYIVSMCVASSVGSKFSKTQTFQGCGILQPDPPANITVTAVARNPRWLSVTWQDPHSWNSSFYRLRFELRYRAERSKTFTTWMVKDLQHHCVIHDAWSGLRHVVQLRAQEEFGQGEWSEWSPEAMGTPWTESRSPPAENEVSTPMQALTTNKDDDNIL
Description: Kinetic analyses of antigen-antibody reactions at pH 5.8 and pH 7.4 were carried out using a Biacore™ T100 surface plasmon resonance system (GE Healthcare) on the four antibodies: humanized PM1 antibody (WT) and H3pI/L73, CLH5/L73, and H170/L82 produced in Examples 2 and 4 (buffer: 10 mM MES (pH 7.4 or pH 5.8), 150 mM NaCl, and 0.05% TWEEN® 20 (polyoxyethelene sorbitan monolaurate)). Various antibodies were bound onto a sensor chip immobilized with recomb-protein A/G (Pierce) by amine coupling. SR344 adjusted to concentrations of 9.8 to 400 nM was injected to the chip as an analyte. […] All the measurements were carried out at 37° C. Association rate constants kₐ (1/Ms) and dissociation rate constants kd (1/s) were calculated using Biacore T100™ Evaluation Software (GE Healthcare), and dissociation constants KD (M) were calculated on the basis of those values (Table 5). Moreover, the ratio of the affinities at pH 5.8 and pH 7.4 were calculated for each clone to evaluate pH-dependent binding. All the measurements were carried out at 37° C.

[2] = molecular target: T1, recombinant soluble human IL-6 receptor …; assay: SPR Biacore T100, biotinylated SR344 on streptavidin chip (model of membrane-type IL-6 receptor), antibody as analyte, bound at pH 7.4, dissociation at pH 5.8, 37 C
[3] = molecular target: T1, recombinant soluble human IL-6 receptor …; assay: SPR Biacore T100, antibody on protein A/G chip, SR344 analyte, 37 C, ratio of pH 5.8 to pH 7.4
Description: Kinetic analysis of antigen-antibody reactions at pH 7.4 and pH 5.8 was carried out using a Biacore T100™ surface plasmon resonance system (GE Healthcare) for the four types of antibodies prepared: WT-IgG1, H54/L28-IgG1, H170/L82-IgG1, and Fv4-IgG1 (buffer: 10 mM MES (pH 7.4 or pH 5.8), 150 mM NaCl, 0.05% Surfactant P20 (polyoxyethelene sorbitan monolaurate)). The antibodies were bound to a sensor chip on which recomb-protein A/G (Pierce) was immobilized by amine coupling, and SR344 adjusted to an appropriate concentration was injected therein as an analyte. The association with and dissociation from SR344 of each type of antibody were observed on a real-time basis. All the measurements were carried out at 37° C. Association rate constants kₐ (1/Ms) and dissociation rate constants kd (1/s) were calculated using Biacore T100™ Evaluation Software (GE Healthcare), and dissociation constants KD (M) were calculated based on those values (Table 17).

Kd [1]: 1.4 nM
koff [1]: 0.00074 s⁻¹
kon [1]: 540000 M⁻¹ s⁻¹
koff [2]: 0.00067 s⁻¹
B1: H3pI/L73 (antibody, IgG1, V domains shown)
VH: QVQLQESGPGLVKPSETLSLTCAVSGHSISHDHAHSWVRQPPGEGLEWIGYISYSGITNYNPSLKGRVTISRDTSKNQFSLKLSSVTAADTAAYYCARSLARTTAMDYWGEGTLVTVSS
VL: DIQMTQSPSSLSASVGDSVTITCQASQHISSHLNWYQQKPGKAPELLIYYGSHLHSGVPSRFSGSGSGTDFTFTISSLEAEDAATYYCGQGNRLPYTFGQGTKVEIE
notes: tested as IgG1; also called H3pI/L73-IgG1; H3pl/L73

Kd [1]: 1.6 nM
koff [1]: 0.0011 s⁻¹
kon [1]: 680000 M⁻¹ s⁻¹
KD (pH 5.8)/KD (pH 7.4) [3]: 61.9
kd (pH 5.8)/kd (pH 7.4) [3]: 11.4
B2: H170/L82 (antibody, IgG1, V domains shown)
VH: B1 VH with D32H, N59H, S63H, S99V, T103I, Y108H
VL: B1 VL with H28D
notes: expressed and purified as IgG (IgG1); also called H170/L82-IgG1

koff [2]: 0.0026 s⁻¹
KD (pH 5.8)/KD (pH 7.4) [3]: 27.3
kd (pH 5.8)/kd (pH 7.4) [3]: 38.8
B3: Fv4-IgG1 (antibody)
heavy: not shown
light: DIQMTQSPSSLSASVGDSVTITCQASTDISSHLNWYQQKPGKAPELLIYYGSHLLSGVPSRFSGSGSGTDFTFTISSLEAEDAATYYCGQGNRLPYTFGQGTKVEIERTVAAPSVFIFPPSDEQLKSGTASVVCLLNNFYPREAKVQWKVDNALQSGNSQESVTEQDSKDSTYSLSSTLTLSKADYEKHKVYACEVTHQGLSSPVTKSFNRGEC
notes: VH3-IgG1 / VL3-CK

Kd [1]: 2.1 nM
koff [1]: 0.001 s⁻¹
kon [1]: 510000 M⁻¹ s⁻¹
koff [2]: 0.00025 s⁻¹
KD (pH 5.8)/KD (pH 7.4) [3]: 1.6
kd (pH 5.8)/kd (pH 7.4) [3]: 2.9
B4: humanized PM1 antibody (wild type, WT) (antibody, human IgG1, kappa, V domains shown)
VH: QVQLQESGPGLVRPSQTLSLTCTVSGYSITSDHAWSWVRQPPGRGLEWIGYISYSGITTYNPSLKSRVTMLRDTSKNQFSLRLSSVTAADTAVYYCARSLARTTAMDYWGQGSLVTVSS
VL: DIQMTQSPSSLSASVGDRVTITCRASQDISSYLNWYQQKPGKAPKLLIYYTSRLHSGVPSRFSGSGSGTDFTFTISSLQPEDIATYYCQQGNTLPYTFGQGTKVEIKR
notes: IgG1; also called WT-IgG1; wild type humanized anti-IL-6 receptor antibody
